From patent US20230242662A1 (BIOATLA, published 2023)

What was measured:
[1] = target: T1, cyno CD46 expressed on 293 cells (cynomolgus); test: FACS, 293 cells expressing cyno CD46, pH 6.0
T1 construct: whole, on cells; The construct on the cells is not described; also called HEK 293 cells expressing cyno CD46
Experimental: (§1) A similar FACS analysis was also carried out using 293 cells expressing cyno CD46. […] The EC50 values for binding to the 293 cells expressing cyno CD46 by the conditionally active anti-CD46 antibodies are summarized in Table 6.

[2] = target: T1, cyno CD46 expressed on 293 cells; test: FACS, 293 cells expressing cyno CD46, pH 7.4
Experimental: as §1

huCD46-His [3] = target: T2, huCD46-His (human, UniProt P15529 35-343); test: SPR, huCD46-His immobilised, antibody as analyte, pH 6.0
T2 construct: extracellular domain; Immobilised by amine coupling on the SPR chip; It may be the same protein as the ELISA antigen; also called Human CD46-His; human CD46; not shown: His tag
T2 sequence (looked up): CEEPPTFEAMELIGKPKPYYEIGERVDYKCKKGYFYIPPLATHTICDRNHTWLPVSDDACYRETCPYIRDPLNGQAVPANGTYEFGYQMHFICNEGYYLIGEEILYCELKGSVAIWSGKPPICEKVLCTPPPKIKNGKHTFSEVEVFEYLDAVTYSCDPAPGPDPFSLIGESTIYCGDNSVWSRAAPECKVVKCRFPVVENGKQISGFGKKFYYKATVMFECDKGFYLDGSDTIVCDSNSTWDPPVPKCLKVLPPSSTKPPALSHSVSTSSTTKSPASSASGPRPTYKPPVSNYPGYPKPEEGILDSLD
Experimental: (§2) Binding kinetics of anti-CD46 antibodies were measured by surface plasmon resonance on a SPR2/4 instrument (Sierra Sensors, Hamburg, Germany) and flat amine sensor chips. The SPR sensor contained four flow cells (FC1-FC4), each of which can be addressed individually or in groups. huCD46-His was immobilized in FC2, and cynoCD46-His was immobilized in FC4. No protein was immobilized in FC1 and FC3 which were used as control surfaces for FC2 and FC4, respectively.
(§3) All injections were done at a flow rate of 25 μL/min and 25° C. The sensor surface was activated with 1-ethyl-3-(3-dimethylaminopropyl)-carbodiimide (EDC) and N-hydroxysuccinimide (NHS) (200 mM/50 mM) for 480 seconds. Human CD46-His (2 μg/mL in 10 mM NaAc, pH5.0) was injected for 480s and the surface was inactivated by injecting 1M ethanolamine-HCl for 480s. cynoCD46-His was immobilized using the same conditions as described for huCD46-His, except that it was diluted into 10 mM NaAc buffer pH4.5. The control surface was activated and deactivated using the same conditions, but without injecting protein. PBST buffer (PBS pH7.4 with 0.05% TWEEN20™) was used as running buffer for the surface preparation. The running solution was switched to PBST with 30 mM sodium bicarbonate with the pH adjusted as indicated in the figures before the analyte injections. The instrument was equilibrated with the running solution for one hour before the first analyte injection.
(§4) The off-rate was measured for 360 s. The chip surface was regenerated after each cycle of interaction by injecting 6 μL of 10 mM glycine (pH 2.0). Flow cells 1 and 3 without immobilized protein were used as control surfaces for reference subtraction.

huCD46-His [4] = target: T2, huCD46-His; test: SPR, huCD46-His immobilised, antibody as analyte, pH 6.5
Experimental: as §2, §3, §4

huCD46-His [5] = target: T2, huCD46-His; test: SPR, huCD46-His immobilised, antibody as analyte, pH 7.4
Experimental: as §2, §3, §4

cynoCD46-His [6] = target: T3, cynoCD46-His (cynomolgus, UniProt A0A2K5WCL8 35-328); test: SPR, cynoCD46-His immobilised, antibody as analyte, pH 6.0
T3 construct: extracellular domain; Immobilised by amine coupling on the SPR chip; not shown: His tag
T3 sequence: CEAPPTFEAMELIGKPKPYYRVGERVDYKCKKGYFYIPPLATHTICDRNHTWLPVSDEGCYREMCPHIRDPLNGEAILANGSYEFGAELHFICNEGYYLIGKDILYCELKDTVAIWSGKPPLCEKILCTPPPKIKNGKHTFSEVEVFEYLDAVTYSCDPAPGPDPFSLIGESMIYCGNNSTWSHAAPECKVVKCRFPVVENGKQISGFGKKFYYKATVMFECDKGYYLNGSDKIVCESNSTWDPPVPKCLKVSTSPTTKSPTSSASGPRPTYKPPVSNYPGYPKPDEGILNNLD
Experimental: as §2, §3, §4

cynoCD46-His [7] = target: T3, cynoCD46-His; test: SPR, cynoCD46-His immobilised, antibody as analyte, pH 6.5
Experimental: as §2, §3, §4

cynoCD46-His [8] = target: T3, cynoCD46-His; test: SPR, cynoCD46-His immobilised, antibody as analyte, pH 7.4
Experimental: as §2, §3, §4

[9] = target: T4, recombinant cyno CD46 antigen (cynomolgus, UniProt A0A2K5WCL8 35-328); test: ELISA, coated cyno CD46; EC50 at pH 7.4 over EC50 at pH 6.0
T4 construct: extracellular domain; Plate-coated antigen of the ELISA; also called cynomolgus CD46 extracellular domain
T4 sequence: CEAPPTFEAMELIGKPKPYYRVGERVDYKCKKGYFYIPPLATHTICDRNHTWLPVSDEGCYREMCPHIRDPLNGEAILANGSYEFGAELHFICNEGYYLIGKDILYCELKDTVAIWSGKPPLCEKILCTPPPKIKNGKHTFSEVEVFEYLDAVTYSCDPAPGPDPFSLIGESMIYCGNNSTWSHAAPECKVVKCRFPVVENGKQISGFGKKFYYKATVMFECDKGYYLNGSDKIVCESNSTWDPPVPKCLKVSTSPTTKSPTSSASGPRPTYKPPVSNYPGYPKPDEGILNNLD
Experimental: The binding activities of conditionally active anti-CD46 antibodies to cyno CD46 were measured by ELISA and are shown in FIGS. 3-4. The EC50 values for binding to the cyno CD46 at pH 6.0 and pH 7.4 for the conditionally active anti-CD46 antibodies are summarized in Table 2.
[…] Cover with sealing film and place the plate onto a plate shaker set to 50 rpm for 60 minutes at room temperature. [0351] 6) Decant plates and tap out residual liquid on a stack of paper towels. [0352] 7) Serially dilute test articles in 3-fold dilutions starting at 3000 ng/mL in pH 6.0 or pH 7.4 ELISA incubation buffer. [0353] 8) Add 100 μL/well of diluted test articles to the plates [0354] 9) Cover with sealing film and place the plates onto a plate shaker set to 50 rpm for 60 minutes at room temperature. […] 10) Decant plates and tap out residual liquid on a stack of paper towels. [0356] 11) Wash wells three times by dispensing 200 μL of pH 6.0 or pH 7.4 ELISA wash buffer to the wells and completely aspirate the contents. [0357] 12) Dilute the HRP secondary antibody at 1:2500 in pH 6.0 or pH 7.4 ELISA incubation buffer. [0358] 13) Add 100 μL HRP secondary antibody diluted in pH 6.0 or pH 7.4 ELISA incubation buffer to each well [0359] 14) Cover with sealing film and place the plates onto a plate shaker set to 50 rpm for 60 minutes at room temperature. [0360] 15) Decant plates and tap out residual liquid on a stack of paper towels. [0361] 16) Wash wells three times by dispensing 200 μL of pH 6.0 or pH 7.4 ELISA wash buffer to the wells and completely aspirate the contents. [0362] 17) Dispense 50 μL per well of the TMB substrate solution into all wells of the plates. Incubate at room temperature for about 2 minutes 15 seconds or 2 minutes. […] 18) Add 50 μL per well of 1N HCl into all wells of the plates. Read plates at 450 nm using PerkinElmer, EnSpire 2300 Multilabel Reader.

[10] = target: T1, cyno CD46 expressed on 293 cells; test: FACS, 293 cells expressing cyno CD46; EC50 at pH 7.4 over EC50 at pH 6.0
Experimental: as §1

EC50 [1]: 0.198 µg/mL
EC50 [2]: 2.92 µg/mL
Kd (huCD46-His [3]): 7.51 nM
koff (huCD46-His [3]): 0.00404 s⁻¹
kon (huCD46-His [3]): 539000 M⁻¹ s⁻¹
Kd (huCD46-His [4]): 5.78 nM
koff (huCD46-His [4]): 0.00282 s⁻¹
kon (huCD46-His [4]): 488000 M⁻¹ s⁻¹
Kd (huCD46-His [5]): 8.79 nM
koff (huCD46-His [5]): 0.00225 s⁻¹
kon (huCD46-His [5]): 256000 M⁻¹ s⁻¹
Kd (cynoCD46-His [6]): 1.45 nM
koff (cynoCD46-His [6]): 0.00184 s⁻¹
kon (cynoCD46-His [6]): 1.27e+06 M⁻¹ s⁻¹
Kd (cynoCD46-His [7]): 1.47 nM
koff (cynoCD46-His [7]): 0.0017 s⁻¹
kon (cynoCD46-His [7]): 1.16e+06 M⁻¹ s⁻¹
Kd (cynoCD46-His [8]): 3.88 nM
koff (cynoCD46-His [8]): 0.00192 s⁻¹
kon (cynoCD46-His [8]): 495000 M⁻¹ s⁻¹
ratio (ph 7.4/pH 6.0) [9]: 13.3
Ratio (pH 7.4/6.0) [10]: 14.8
B1: BAP133-2-02-12 (antibody, V domains shown)
VH: EVQLVESGGGLVQPGGSLRLSCAASGGSVSSYDISWIRQSPSRGLEWLGVIWTDGGTNYNSAFMSRFTISRDDSKNTAYLQMNSLKTEDTAVYYCERVYDGYPWFAYWGQGTLVTVSS
VL: AIQLTQSPSSLSASVGDRVTITCRALQGISNYLNWYQQKPGKAPKLLIYYTSSLHSGVPSRFSGSGSGTEFTLTISSLQPDDFATYYCQQYIKLPWTFGQGTKVEIK
notes: also called BAP133-02-02-12; CPE hit BAP133-2-02-12
